Each block holds one binder with its values, some of them ahead of it. Non-standard residues stand in square brackets, D forms with d. No end group written: not given here. *: point of attachment. Desaminotyrosyl = O=C(CCc1ccc(O)cc1)*; NMeY = CN[C@@H](Cc1ccc(O)cc1)C(=O)O; Agmatine = N=C(N)NCCCCN*; Nle = CCCC[C@H](N)C(=O)O; Orn = NCCC[C@H](N)C(=O)O; dAbu = CC[C@@H](N)C(=O)O; Abu = CC[C@H](N)C(=O)O; Aoc = NCCCCCCCC(=O)O; GABA = NCCCC(=O)O
Legend:
[1] = biological target: T1, GHRH receptor (membrane receptors of human anterior pituitary cells) (human) (UniProt Q02643); assay: competition with 125I-JV-1-42, human pituitary membranes
T1 sequence (looked up): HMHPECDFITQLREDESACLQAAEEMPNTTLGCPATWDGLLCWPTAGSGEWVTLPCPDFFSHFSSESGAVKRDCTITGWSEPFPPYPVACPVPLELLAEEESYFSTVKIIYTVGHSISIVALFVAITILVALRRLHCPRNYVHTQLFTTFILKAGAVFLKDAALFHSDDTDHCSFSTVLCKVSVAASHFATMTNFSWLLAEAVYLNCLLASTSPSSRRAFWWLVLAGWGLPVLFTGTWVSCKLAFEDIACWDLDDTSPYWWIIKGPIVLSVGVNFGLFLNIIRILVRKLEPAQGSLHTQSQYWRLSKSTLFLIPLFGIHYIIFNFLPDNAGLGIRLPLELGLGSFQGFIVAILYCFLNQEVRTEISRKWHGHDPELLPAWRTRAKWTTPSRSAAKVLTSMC

[2] = biological target: T1, GHRH receptor (membrane receptors of human anterior pituitary cells) (human); assay: competition with 125I-[His1,Nle27]hGHRH(1-32)NH2, human pituitary membranes
[3] = biological target: T2, GHRH receptor (membrane receptors of human anterior pituitary cells) (human, UniProt Q02643 23-423); assay: competition with 125I-JV-1-42, human pituitary membranes
T2 construct: whole, on cells; Native receptor in a membrane fraction of purchased normal human pituitaries, not intact cells; also called hGHRH receptor; human pituitary membrane homogenates
T2 sequence (looked up): T1 sequence (looked up)
Source text: Normal human pituitaries were purchased from the National Hormone and Peptide Program (A. F. Parlow, Los Angeles, County Harbor-UCLA Medical Center, Torrance, Calif.).

[4] = biological target: T2, GHRH receptor (membrane receptors of …); assay: competition with 125I-[His1,Nle27]hGHRH(1-32)NH2, human pituitary membranes

B1: P-21301 [N-Me-Tyr^1, Orn^12, Abu^15, Orn^21, Nle^27, Asp^28, Amc^30]hGHRH(1-30)NH2 (peptide, from a related filing)
peptide: [NMeY]ADAIFTNSYR[Orn]VL[Abu]QLSAR[Orn]LLQDI[Nle]DR[Aoc]-NH2
modifications: N-terminus assumed
SMILES: CCCC[C@H](NC(=O)[C@@H](NC(=O)[C@H](CC(=O)O)NC(=O)[C@H](CCC(N)=O)NC(=O)[C@H](CC(C)C)NC(=O)[C@H](CC(C)C)NC(=O)[C@H](CCCN)NC(=O)[C@H](CCCNC(=N)N)NC(=O)[C@H](C)NC(=O)[C@H](CO)NC(=O)[C@H](CC(C)C)NC(=O)[C@H](CCC(N)=O)NC(=O)[C@H](CC)NC(=O)[C@H](CC(C)C)NC(=O)[C@@H](NC(=O)[C@H](CCCN)NC(=O)[C@H](CCCNC(=N)N)NC(=O)[C@H](Cc1ccc(O)cc1)NC(=O)[C@H](CO)NC(=O)[C@H](CC(N)=O)NC(=O)[C@@H](NC(=O)[C@H](Cc1ccccc1)NC(=O)[C@@H](NC(=O)[C@H](C)NC(=O)[C@H](CC(=O)O)NC(=O)[C@H](C)NC(=O)[C@H](Cc1ccc(O)cc1)NC)[C@@H](C)CC)[C@@H](C)O)C(C)C)[C@@H](C)CC)C(=O)N[C@@H](CC(=O)O)C(=O)N[C@@H](CCCNC(=N)N)C(=O)NCCCCCCCC(N)=O
IC50 [1]: 2.99 nM
Relative affinity (Binding potency) vs JI-38 [1]: 1.45 JI-38 = 1

B2: P-20351 [Ac-N-Me-Tyr^1, D-Ala^2, Gln^8, Orn^12, Abu^15, Orn^21, Nle^27, Asp^28, Agm^29]hGHRH(1-29)NH2 (peptide)
peptide: Ac-[NMeY][dA]DAIFTQSYR[Orn]VL[Abu]QLSAR[Orn]LLQDI[Nle]D[Agmatine]
SMILES: CCCC[C@H](NC(=O)[C@@H](NC(=O)[C@H](CC(=O)O)NC(=O)[C@H](CCC(N)=O)NC(=O)[C@H](CC(C)C)NC(=O)[C@H](CC(C)C)NC(=O)[C@H](CCCN)NC(=O)[C@H](CCCNC(=N)N)NC(=O)[C@H](C)NC(=O)[C@H](CO)NC(=O)[C@H](CC(C)C)NC(=O)[C@H](CCC(N)=O)NC(=O)[C@H](CC)NC(=O)[C@H](CC(C)C)NC(=O)[C@@H](NC(=O)[C@H](CCCN)NC(=O)[C@H](CCCNC(=N)N)NC(=O)[C@H](Cc1ccc(O)cc1)NC(=O)[C@H](CO)NC(=O)[C@H](CCC(N)=O)NC(=O)[C@@H](NC(=O)[C@H](Cc1ccccc1)NC(=O)[C@@H](NC(=O)[C@H](C)NC(=O)[C@H](CC(=O)O)NC(=O)[C@@H](C)NC(=O)[C@H](Cc1ccc(O)cc1)N(C)C(C)=O)[C@@H](C)CC)[C@@H](C)O)C(C)C)[C@@H](C)CC)C(=O)N[C@@H](CC(=O)O)C(=O)NCCCCNC(=N)N
notes: also called MR-351; Peptide 20351
IC50 [3]: 3.44 nM
Relative affinity (Binding potency) vs JI-38 [3]: 1.26 JI-38 = 1
IC50 [4]: 3.87 nM
Relative affinity (Binding potency) compared to JI-38 [4]: 0.71 JI-38 = 1
Relative affinity (Binding potency) compared to hGHRH(1-29) [4]: 1.98 hGHRH(1-29)NH2 = 1

B3: P-27407 [Dat^1, Gln^8, Orn^12, Abu^15, Orn^21, Nle^27, Asp^28]hGHRH(1-29)NH-CH3 (peptide, from a related filing)
peptide: [Desaminotyrosyl]ADAIFTQSYR[Orn]VL[Abu]QLSAR[Orn]LLQDI[Nle]DR-NHMe
SMILES: CCCC[C@H](NC(=O)[C@@H](NC(=O)[C@H](CC(=O)O)NC(=O)[C@H](CCC(N)=O)NC(=O)[C@H](CC(C)C)NC(=O)[C@H](CC(C)C)NC(=O)[C@H](CCCN)NC(=O)[C@H](CCCNC(=N)N)NC(=O)[C@H](C)NC(=O)[C@H](CO)NC(=O)[C@H](CC(C)C)NC(=O)[C@H](CCC(N)=O)NC(=O)[C@H](CC)NC(=O)[C@H](CC(C)C)NC(=O)[C@@H](NC(=O)[C@H](CCCN)NC(=O)[C@H](CCCNC(=N)N)NC(=O)[C@H](Cc1ccc(O)cc1)NC(=O)[C@H](CO)NC(=O)[C@H](CCC(N)=O)NC(=O)[C@@H](NC(=O)[C@H](Cc1ccccc1)NC(=O)[C@@H](NC(=O)[C@H](C)NC(=O)[C@H](CC(=O)O)NC(=O)[C@H](C)NC(=O)CCc1ccc(O)cc1)[C@@H](C)CC)[C@@H](C)O)C(C)C)[C@@H](C)CC)C(=O)N[C@@H](CC(=O)O)C(=O)N[C@@H](CCCNC(=N)N)C(=O)NC
IC50 [1]: 3 nM
Relative affinity (Binding potency) vs JI-38 [1]: 1.45 JI-38 = 1
IC50 [2]: 5.01 nM
Relative affinity (Binding potency) compared to JI-38 [2]: 0.54 JI-38 = 1
Relative affinity (Binding potency) compared to hGHRH(1-29) (hGHRH(1-29)NH2 = 1) [2]: 1.52

B4: P-25504 [Dat^1, D-Abu^2, Orn^12, Abu^15, Orn^21, Nle^27, Gab^30]hGHRH(1-30)NH2 (peptide)
peptide: [Desaminotyrosyl][dAbu]DAIFTNSYR[Orn]VL[Abu]QLSAR[Orn]LLQDI[Nle]SR[GABA]-NH2
SMILES: CCCC[C@H](NC(=O)[C@@H](NC(=O)[C@H](CC(=O)O)NC(=O)[C@H](CCC(N)=O)NC(=O)[C@H](CC(C)C)NC(=O)[C@H](CC(C)C)NC(=O)[C@H](CCCN)NC(=O)[C@H](CCCNC(=N)N)NC(=O)[C@H](C)NC(=O)[C@H](CO)NC(=O)[C@H](CC(C)C)NC(=O)[C@H](CCC(N)=O)NC(=O)[C@H](CC)NC(=O)[C@H](CC(C)C)NC(=O)[C@@H](NC(=O)[C@H](CCCN)NC(=O)[C@H](CCCNC(=N)N)NC(=O)[C@H](Cc1ccc(O)cc1)NC(=O)[C@H](CO)NC(=O)[C@H](CC(N)=O)NC(=O)[C@@H](NC(=O)[C@H](Cc1ccccc1)NC(=O)[C@@H](NC(=O)[C@H](C)NC(=O)[C@H](CC(=O)O)NC(=O)[C@@H](CC)NC(=O)CCc1ccc(O)cc1)[C@@H](C)CC)[C@@H](C)O)C(C)C)[C@@H](C)CC)C(=O)N[C@@H](CO)C(=O)N[C@@H](CCCNC(=N)N)C(=O)NCCCC(N)=O
notes: also called MR-504; Peptide 25504
IC50 [3]: 1.44 nM
Relative affinity (Binding potency) vs JI-38 [3]: 3.02 JI-38 = 1
IC50 [4]: 2.85 nM
Relative affinity (Binding potency) compared to JI-38 [4]: 0.96 JI-38 = 1
Relative affinity (Binding potency) compared to hGHRH(1-29) [4]: 2.68 hGHRH(1-29)NH2 = 1

Now from value to binder:

IC50 [1]: 1.08 nM
Relative affinity (Binding potency) vs JI-38 [1]: 4.03 JI-38 = 1
IC50 [2]: 2.51 nM
Relative affinity (Binding potency) compared to JI-38 [2]: 1.09 JI-38 = 1
Relative affinity (Binding potency) compared to hGHRH(1-29) (hGHRH(1-29)NH2 = 1) [2]: 3.04
Binder: [NMeY]ADAIFTQSYR[Orn]VL[Abu]QLSAR[Orn]LLQDI[Nle]SR-NHMe (peptide, from a related filing) [P-27405 [N-Me-Tyr^1, Gln^8, Orn^12, Abu^15, Orn^21, Nle^27]hGHRH(1-29)NH-CH3]

IC50 [3]: 0.82 nM
Relative affinity (Binding potency) vs JI-38 [3]: 5.3 JI-38 = 1
IC50 [4]: 1.19 nM
Relative affinity (Binding potency) compared to JI-38 [4]: 2.3 JI-38 = 1
Relative affinity (Binding potency) compared to hGHRH(1-29) [4]: 6.42 hGHRH(1-29)NH2 = 1
Binder: [NMeY][dA]DAIFTQSYR[Orn]VL[Abu]QLSAR[Orn]LLQDI[Nle]D[Agmatine] (also called Peptide 20361) [P-20361 [N-Me-Tyr^1, D-Ala^2, Gln^8, Orn^12, Abu^15, Orn^21, Nle^27, Asp^28, Agm^29]hGHRH(1-29)NH2]

Source: patent US20140179604A1 (U S A REPRESENTED BY THE DEPARTMENT OF VETERANS AFFAIRS, published 2014)
